Test system: MS2 coat protein
Test: apparent KD of MS2 coat protein; designed switch direction (-1 OFF switch, 1 ON switch): -1; higher = weaker reporter binding
Procedure, shortened: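 Apparent KD, taken as the median over clusters for each design, was obtained by curve-fitting normalised cluster fluorescence. Designed RNA switches had been transcribed on Illumina chips by stalled E. coli RNA polymerase and titrated with SNAP-549-labelled MS2 coat protein, doubling from 0.7 or 1.5 nM to 3 µM.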

[1] = Eterna round: R95, input ligand: FMN 200 uM
[2] = Eterna round: R95, input ligand: microRNA oligo, concentration not stated
[3] = Eterna round: R95, input ligand: none
[4] = input ligand: microRNA oligo, concentration not stated

## GAAUAGGCAGGAUAUACAUGAGGAUCACCCAUGUGCCGGCGAUAGGUACGAUCGAAAGGUAGAAGGGCCUAAAC [ChP 13.04.2015 #8] (puzzle: Exclusion 3)
[1]
  apparent KD of MS2 coat protein: 30.7 nM
[2]
  apparent KD of MS2 coat protein: 140 nM
[3]
  apparent KD of MS2 coat protein: 127 nM

## UCCUGGUCAGGAUAUUGCAGGUCGUACGCUCUGAGUCUAGGCAAGAAGGGACAUGAGGAUCACCCAUGUGGGCG [Eternabot (L1) Solution 4] (Eterna round: R97, puzzle: Exclusion 4)
Input ligand: FMN 200 uM
  apparent KD of MS2 coat protein: 406 nM
Input ligand: none
  apparent KD of MS2 coat protein: 187 nM

## AGAGAGUCAGGAUAUCGGUGUGCGAGGAGAGGAGAGAGAGACGAGAAGGGACAUGAGGAUCACCCAUGUAGGUG [JR_Exclusion4)Sub019] (puzzle: Exclusion 4)
[1]
  apparent KD of MS2 coat protein: 366 nM
[2]
  apparent KD of MS2 coat protein: 389 nM
[3]
  apparent KD of MS2 coat protein: 318 nM

## GCACGGAGUGUAGGAUAUCUGUGCGAUUAGCUCAGAGAAGGACAUGAGGAUCACCCAUGUGUGUUCCAAACACAAAAUCCGUGC [Eli exng1 - 065] (Eterna round: R96, puzzle: Exclusion NG 1)
Input ligand: FMN 200 uM
  apparent KD of MS2 coat protein: 47.2 nM
[4]
  apparent KD of MS2 coat protein: 12.8 nM
Input ligand: none
  apparent KD of MS2 coat protein: 18 nM

## GAAGAGGUAGGAUAUACGAAAAAAAAGGGUAGAAAAAAAACACAUGAGGAUCACCCAUGUAGAAGGACCAAAAG [salish99_ex2_r3_034] (puzzle: Exclusion 2)
[1]
  apparent KD of MS2 coat protein: 102 nM
[2]
  apparent KD of MS2 coat protein: 36 nM
[3]
  apparent KD of MS2 coat protein: 23.1 nM

## UAGAAACAUGAGGAUCACCCAUGUGAGGAUAUGAAAAAGAAAAGAAAAGAAAGAAGAAUCAGAAGGCACAAAGC [salish99-ex1_r3_092] (puzzle: Exclusion 1)
[1]
  apparent KD of MS2 coat protein: 28.6 nM
[2]
  apparent KD of MS2 coat protein: 17.7 nM
[3]
  apparent KD of MS2 coat protein: 36.6 nM

## UUAAUUAAUUUAUUAGAUCCUCACAUGAGGAUCACCCAUGUGCAGGAUAUCAGCUCGAUUAGAGCUGAGAAGGGCACUAUAAAU [ExNG3/10-B1] (Eterna round: R96, puzzle: Exclusion NG 3)
Input ligand: FMN 200 uM
  apparent KD of MS2 coat protein: 65 nM
[4]
  apparent KD of MS2 coat protein: 56.4 nM
Input ligand: none
  apparent KD of MS2 coat protein: 62.2 nM

## AACAUGGCAGAGGAUAUAGGACGCUGGCAUAAACUAGAAGGCUGCACAUGAGGAUCACCCAUGUGUUCCAAAAC [Atquisuson] (Eterna round: R97, puzzle: Exclusion 6)
Input ligand: FMN 200 uM
  apparent KD of MS2 coat protein: 38.6 nM
Input ligand: none
  apparent KD of MS2 coat protein: 22.6 nM

## CGUCCUCUAGUCAGGAUAUUGUCUCGGAUACGAAACAAGAAGGGACAUGAGGAUCACCCAUGUAAUGAGGACGA [Malc #30 mod 15] (puzzle: Brourd's mod of Exclusion 4)
[1]
  apparent KD of MS2 coat protein: 20.1 nM
[2]
  apparent KD of MS2 coat protein: 33.1 nM
[3]
  apparent KD of MS2 coat protein: 33.8 nM

## AAGAUGCGGAUAGGAUAUGGAAAAAAAAAAAGACCAGAAGGAUUGGUCAUAUAACAUGAGGAUCACCCAUGUAUAUGUUGUGAA [AK ExNG1-3] (Eterna round: R96, puzzle: Exclusion NG 1)
Input ligand: FMN 200 uM
  apparent KD of MS2 coat protein: 17.8 nM
[4]
  apparent KD of MS2 coat protein: 21.3 nM
Input ligand: none
  apparent KD of MS2 coat protein: 19.3 nM

## CCAAAUUCAGGAUAUACGAUGGUGAGUUCGUCCUCAAGGCCACAUGAGGAUCACCCAUGUAGAAGGGAGGUCGG [Eternabot (L1) Solution 77] (Eterna round: R97, puzzle: Exclusion 2)
Input ligand: FMN 200 uM
  apparent KD of MS2 coat protein: 130 nM
Input ligand: none
  apparent KD of MS2 coat protein: 35.6 nM

## ACCUCACAUGAGGAUCACCCAUGUCAGGAUAUCUAUUAUUGCAGCAAUCCUGUCGCUGAGAGAAGGGACAUUAA [EX1 #27] (Eterna round: R97, puzzle: Exclusion 1)
Input ligand: FMN 200 uM
  apparent KD of MS2 coat protein: 32.2 nM
Input ligand: none
  apparent KD of MS2 coat protein: 33 nM

## GUAACAUUAAAGGCUCGUGACAUGAGGAUCACCCAUGUAUGGACCGUUCCACUUACCGACAAGCUGUGAUCGUCCUU [Eternabot (L2) Solution 22] (Eterna round: R97, puzzle: Sensor, turn-off variant 1)
Input ligand: FMN 200 uM
  apparent KD of MS2 coat protein: 40.8 nM
Input ligand: none
  apparent KD of MS2 coat protein: 42 nM

## UUAAAUCAUGUAGGAUAUGGAAGGCGAACCUAUCCAGAAGGACAUGAGGAUCACCCAUGUGCUGCGUUGUCCGUAGACAGCGCU [Ex NG1 #1] (Eterna round: R96, puzzle: Exclusion NG 1)
Input ligand: FMN 200 uM
  apparent KD of MS2 coat protein: 114 nM
[4]
  apparent KD of MS2 coat protein: 29.5 nM
Input ligand: none
  apparent KD of MS2 coat protein: 36.2 nM

## ACAUGACUGCUAGGAUAUAGAUGACAUGAGGAUCACCCAUGUUGUCCCAUGUUUAUGGAAACGGACUAGAAGGAGCAGUAUAUG [Ex NG2 #13] (Eterna round: R96, puzzle: Exclusion NG 2)
Input ligand: FMN 200 uM
  apparent KD of MS2 coat protein: 18.8 nM
[4]
  apparent KD of MS2 coat protein: 26.2 nM
Input ligand: none
  apparent KD of MS2 coat protein: 20.2 nM

## AAUCCACAUGAGGAUCACCCAUGUCAGGAUAUCUUUGGCCUAACAUGUUAGGACCGUUAGAGAAGGGACACGAU [EX1 B.28] (Eterna round: R97, puzzle: Exclusion 1)
Input ligand: FMN 200 uM
  apparent KD of MS2 coat protein: 70.3 nM
Input ligand: none
  apparent KD of MS2 coat protein: 18.2 nM

## UACUUCCGAGGAUAUACAUGAGGAUCACCCAUGUGCUUCAGCAUUUUUUGAUGCAUGGGUAGAAGGCGGUAGUU [LRO-Excl3-17] (puzzle: Exclusion 3)
[2]
  apparent KD of MS2 coat protein: 299 nM

## UUUAACAAGCCAGAUCCUCACAUGAGGAUCACCCAUGUGCUCGUCUGUUUUUGUACUAUCACGUUUGUGAUAGUGUU [Level Boss var2-08] (puzzle: Sensor v3, turn-off variant 1)
[1]
  apparent KD of MS2 coat protein: 220 nM
[2]
  apparent KD of MS2 coat protein: 16.2 nM
[3]
  apparent KD of MS2 coat protein: 295 nM

## GGUUGGCGAGGAUAUACAUGAGGAUCACCCAUGUGAGAGAAAAAAGUGAGGAACAAAAGUAGAAGGCGCUGACG [salish99_ex3_r3_033] (puzzle: Exclusion 3)
[1]
  apparent KD of MS2 coat protein: 184 nM
[2]
  apparent KD of MS2 coat protein: 48.5 nM
[3]
  apparent KD of MS2 coat protein: 58.2 nM

## UUUUACUGAGGAUAUACAUUUUUUUAUUUAUUUAUAAUAUUACAUGAGGAUCACCCAUGUAGAAGGCAGAUUUU [My Design] (puzzle: Exclusion 2)
[2]
  apparent KD of MS2 coat protein: 26.7 nM

## AAACGCUGAGGAUAUGCGCCGAGGCACAUGAGGAUCACCCAUGUGACCUCACUGCCUUGAGCAGAAGGCAGAAAAU [Vezaatinxe] (puzzle: Exclusion 5)
[1]
  apparent KD of MS2 coat protein: 137 nM
[2]
  apparent KD of MS2 coat protein: 56.4 nM
[3]
  apparent KD of MS2 coat protein: 53 nM

## UUUGUAUAUGAAGGAUAUACUUAACAUGAGGAUCACCCAUGUGGUGUUGUGAGUGAGUGAGUUUAGUAGAAGGUCAAGUAUUUU [JMF's solution 50] (Eterna round: R96, puzzle: Exclusion NG 2)
Input ligand: FMN 200 uM
  apparent KD of MS2 coat protein: 403 nM
[4]
  apparent KD of MS2 coat protein: 298 nM
Input ligand: none
  apparent KD of MS2 coat protein: 367 nM

## GCCUGUAGUGUGAGGAUAUGCUGCUCCAUAGAGCAGCAGAAGGCACAUGAGGAUCACCCAUGUGAUAACAGGCA (Eterna round: R97, puzzle: Brourd's mod of Exclusion 4)
Input ligand: FMN 200 uM
  apparent KD of MS2 coat protein: 443 nM
Input ligand: none
  apparent KD of MS2 coat protein: 151 nM

## UAGAUGGGAGGAUAUACAUAGAUACAGAUUCGUGUAGUGCUACAUGAGGAUCACCCAUGUAGAAGGCCCGUCUU [JL-ex2-2.21 Mayanne mod] (puzzle: Exclusion 2)
[2]
  apparent KD of MS2 coat protein: 15.2 nM

## AAUAGCUAAGGAUAUACAUGAGGAUCACCCAUGUAAAACACUACUUGGAACCGCCUCGGUAGAAGGUAGAAAAU [Arbean] (puzzle: Exclusion 3)
[2]
  apparent KD of MS2 coat protein: 21.5 nM

## CAGUACUGAGGAUAUACAUGAGGAUCACCCAUGUUCUUCGGCUAGGAUACUAGCAAAGGUAGAAGGCAGUACUG [Mat - Exclusion 3 - Eli Mod - D27] (Eterna round: R97, puzzle: Exclusion 3)
Input ligand: FMN 200 uM
  apparent KD of MS2 coat protein: 144 nM
Input ligand: none
  apparent KD of MS2 coat protein: 18.7 nM

## UUAAUUAAUAAUUAAGAUCAUUACAUGAGGAUCACCCAUGUCGAGGAUAUCAGCUCGUUUAGAGCUGAGAAGGCGACAAAUUAU [ExNG3/13-B2] (Eterna round: R96, puzzle: Exclusion NG 3)
Input ligand: FMN 200 uM
  apparent KD of MS2 coat protein: 670 nM
[4]
  apparent KD of MS2 coat protein: 411 nM
Input ligand: none
  apparent KD of MS2 coat protein: 473 nM

## CCAUGUUAGCAGGAUAUGCCAUUAUUCCUUUACGCAGAAGGGCUUACAUGAGGAUCACCCAUGUAACAUUUCAU [JR_E6_Sub083] (puzzle: Exclusion 6)
[2]
  apparent KD of MS2 coat protein: 14.1 nM

## ACACAACAUGAGGAUCACCCAUGUCAGGAUAUGCAGAACAAGAACAAGACAAGACAGAGCAGAAGGGACAACAC [Ex 1 M5] (Eterna round: R96, puzzle: Exclusion 1)
Input ligand: FMN 200 uM
  apparent KD of MS2 coat protein: 49 nM
[4]
  apparent KD of MS2 coat protein: 29.6 nM
Input ligand: none
  apparent KD of MS2 coat protein: 36.3 nM

## GAGAAACAUGAGGAUCACCCAUGUCAGGAUAUUCGGAGGAGAGGGAAGAGAGAGAGGAGAAGAAGGGACGAGAG [Exclusion 1 Rhiboswitch & Hairpin Submission (Joejoemyo11)] (puzzle: Exclusion 1)
[1]
  apparent KD of MS2 coat protein: 38.7 nM
[2]
  apparent KD of MS2 coat protein: 26 nM
[3]
  apparent KD of MS2 coat protein: 55.7 nM

## UGUACGAUGCGUGCUGACAUGCGUCGUGCAGCAAGCUUUACAUGAGGAUCACCCAUGUCCUCACUUGCUCGUCUUGU (puzzle: Sensor v3, turn-off variant 2)
[1]
  apparent KD of MS2 coat protein: 643 nM
[2]
  apparent KD of MS2 coat protein: 21.3 nM
[3]
  apparent KD of MS2 coat protein: 490 nM

## CUUAUGUGAGGAUAUGCCUGGCCGUGAGGCCAAAUUGAUAAGCAGAAGGCACAUGAGGAUCACCCAUGUGCGGG [jl-ex4-4.68 ViennaUCT mod] (Eterna round: R97, puzzle: Exclusion 4)
Input ligand: FMN 200 uM
  apparent KD of MS2 coat protein: 112 nM
Input ligand: none
  apparent KD of MS2 coat protein: 241 nM

## CUGCUCCGUGUAGGAUAUCCCGGCAACCAAUCGGGAGAAGGACAUGAGGAUCACCCAUGUAUGUUAUUAUCACGUGAAGCGUCC [Design 27] (Eterna round: R96, puzzle: Exclusion NG 1)
[4]
  apparent KD of MS2 coat protein: 16.3 nM

## GCCCGUGCGGAGGAUAUUGAUAUCCCAGUCUAUCAAGAAGGCUGCACAUGAGGAUCACCCAUGUGACCUGUGCU [Retiqule] (puzzle: Exclusion 6)
[2]
  apparent KD of MS2 coat protein: 15.8 nM

## AAGCGCGUAGGAUAUACAUGAGGAUCACCCAUGUGAGGAAGGAGUUGGAAGUGUGGAAGUAGAAGGACGGAGUG [JR_Exclu3_Sub078] (puzzle: Exclusion 3)
[1]
  apparent KD of MS2 coat protein: 35.4 nM
[2]
  apparent KD of MS2 coat protein: 44.3 nM
[3]
  apparent KD of MS2 coat protein: 41.7 nM
